In the nanobody polyreactivity screen of Harvey et al. (2022):

Test: yeast display, Sf9 membrane polyspecificity reagent, FACS + sequencing; frameworks hold sequencing errors
Outline: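 A synthetic nanobody library was expressed on Saccharomyces cerevisiae BJ5465 by galactose induction for 36–48 hours. The library was stained for 1 hour at 4 °C with 10% biotinylated, detergent-solubilized Sf9 membrane reagent and enriched with streptavidin microbeads before FACS. Low and high (top ~1%) gates were set on anti-HA fluorescence for expression and streptavidin fluorescence for reagent binding, and each polyreactivity label reflects the gate of origin.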

Row | Sequence | polyreactivity (PSR sort gate)
1 | QVQLVESGGGLVQAGGSLRLSCAASGRTFRPYTMGWYRQAPGKERELVAAISASGGRTYYADSVKGRFTISRDNAKNTVYLQMNSLKPEDTAVYYCAARVRDSLVYGGWDDYWGQGTQVTVSS | high polyreactivity
2 | QVQLVESGGGLVQAGGSLRLICAASGRTFRYYAMGWYRQAPGKERELVAAISASGGSTFYADSVKGRFTISRDNAKNTVYLQMNSLKPEDTAVYYCAAYHYSVFPYKQYDYWGQGTQVTVSS | high polyreactivity
3 | QVQLVESGGGLVQAGGSLRLSRAASGFIFSGNAMGWYRKAPGKERELVAVITTSGGSTYYADSVKGRFTISRDNAKNTVYLQMISMKPEDTAVYYCNKPGHRSGPPYDYWGQGTQVSVSS | high polyreactivity
4 | QVQLVESGGGLVQAGGSLRLSCTASGITSGSYAMGWYRQAPGKERELVAAISNSGSTYYADSVKGRFTISRDNAKNSVYLQMNSLKPEDTAVYYCNADDWWGGYDYWGQGTQVTVSS | low polyreactivity
5 | QVQLVESGGGSLRLSCAASGLTFGGYTMGWYRQAPGKERELVAAISSSDSTNYADSVKGRFTISRDNAKNTVYLQMNSLKPEDTAVYYCAADSGQWSRYSSFGDEGDSWGQGTQVTVSS | low polyreactivity
6 | QVQLVESGGGLVQAGGSLRLSCAASGRIFARNAMGWYRQAPGKESELVAAITSSGSTYYADSVKGRFTISRDNAKNSVYLQMNSLKPEDTAVYYCAADGHAYRSNFWGQGTQVTVSS | low polyreactivity
7 | QVQLVESGGGLVQAGGSLRLSCAASGRTFDLYAMGWYRQAPGKEREFVAAISWRGGRTYYADSVKGRFTISRDNAKNTVYLQMNSQKPEDTAVYYCAARTGATSRIRFDYWGQGTQVTVSS | low polyreactivity
8 | QVQLVESGGGLVQAGGSLRLSCAASGSTFYVNAMGCYKQAPGKEWELVAAIDGCDTYYADSVKGRFTISRDNAKKTVNLQMNSLKPDDTEVYYCAAESLPEISVGLGYWGQGTQVTVSS | low polyreactivity
9 | QVQIVESGGGLVQAGGSLRLSCAASGRTFRTYAMGWSRPAPGKEREMVAAIRSNAGSTYYADSVKGRFTISRDNAKNTVYLQMHSLKPEDTAVYYCAKSYRSSRRYNYWGQGTQVTVSS | high polyreactivity
10 | QVQLVESGGGLVQAGGSLRLSCAASGSIFWGYAMGWYRPAPGKERELVATIRNRGGSTYYADSVKGRFTISRDNAKNTVYLQMNSLKPEDTAVYYCAAVSYRQYYGWGNYWGQGTQVTVSS | low polyreactivity
11 | QVQLVESGGGLVQAGGSLRLSCAASGFIFGTYAMGWYRQAPGKERELVAAISQSGGRTYYADSVKGRFTISRDNAKNTVYLQMNSLKPEDTAVYYCAAYRYVRYDYWGQGTQVTVSS | high polyreactivity
12 | QVQLVESGRGLVQAGGSLRLSCAASGFTIDYYAIAWYRQAPGKERELVADISSDGSTYADSVKGRFTISRDNAKNTVYLQMNSLKPEDTAVYYCNAYLSKYFRYDYWGQGTQVTVSS | high polyreactivity
13 | QVQLVESGGGLVQAGGSLRLSCAASGRIFLGYAMGRYRQAPGKERELVAAITFSGGSTYYADSVKGRFTISRDNAKNTVYLQMNSLKPEDTAVYYCAAPRLRRTYPRNRYDYWGQGTQVTVSS | low polyreactivity
14 | QVQLVESGGGLVQAGGSLRLSCAASGSTFSFNAMGWYRQAPGKERELVAAISRSGGRTYYADSVKGRFTISRDNAKNTVYLQMNSLKPEDTAVYYCNKVWFQRSVQPVEYVYWGQGTQVTVSS | high polyreactivity
15 | QVQLVESGGGLVQAGGSLRLSCAASGRTFGVNAMGWYRQAPGKERELVAAINWSADRTYYADSVKGRFTISRDNAKNTVYLQMNSLKPEDTAVYYCAVTQRWYWSYYGSDPSQYGYWGQGTQVTVSS | low polyreactivity
16 | QVQLVESGGGLVQAGGSLRLSCAASGFTFGAYAMGWYRQAPGKERELVAAITWSGSSTYYADSVKGRFTISRDNAKNTVYLQMNSLKPEDTAVYYCNVQDKGYVSYYGGDSWGQGTQVTVSS | high polyreactivity
17 | QVQLVESGGGLVQAGGSLRLSCAASGLTFDGNAMGWYRQAPGKERELVAAITSSGGNTYYADSVKGRFTISRDNAKNTVYLQMNSLKPEDTAVYYCAAGGYRWSARTWSWVRYDYWGQGTQVTVSS | high polyreactivity
18 | QVQLVESGGGLVQAGGSLRLSCAASGRTCYDNTMGWSRQAPGTEREFVADITGSGGSTHYADSVKGRFTISRDNAKNTVYLQLNSLKPEDTAVYYCAADYRYNRGITSNKDYDYWGQGTQVTVSS | low polyreactivity
19 | QVQLVESGGGLVQAGGSLRLSCAASGFTFSTYAMGWDRQAPGKERELVAAISRSGGSTYYADSVKGRFTISRDNAKNTVYLQMNSLKPEDTAVYYCAVRPFRSAGGSVTRGAYYYWGQGTQVTVSS | high polyreactivity
20 | QVQLVESGVGLVQAGGSLRLSCAASGRIFYTYAMGWYRQAPGKERELVAAISSRTGSTYYADSVKGRFTISRDNAKNTVYLQMNSLKPEDTAVYYCAAYLWKSKRKLDYWGQGTQVTVSS | high polyreactivity
21 | QVQLVESGGGLLQAGGSLRLSCAASGSNFDRYGRGWYRQAPGTERELVADITSDGSTNYADSVKGRFTISRDNAKNTVYLQMNSLKPEDTAVYYCAVSYTAYSVGYDYWGQGTQVTVSS | low polyreactivity
22 | QVQLVESGGGLVQAGGSLRLSCAASGSIFNPYTMGWYRQAPGKEREMVAAISASGGSTYYADSVKGRFTISRDNAKNTVYLQMNSLKPEDTAVYYCNVYRITRHSYNFGFDYWGQGTQVTVSS | low polyreactivity

Row | Sequence | polyreactivity (PSR sort gate)
23 | QVQLVESGGGLVQAGGSLRLSCAASGINFFGKYAMGWYRQAPGKERELVAAISWSGGRTYYADSVKWRFTISRDNAKNTVYLQMNSLKPEDTAVYYCAVYPRDAERYGYCGQGTQVTVSS | high polyreactivity
24 | QVQLVESGGGLVQAGGSLRLSCAASAFIFISYAMGLYRQAAGKERELVAAISSSGVSTYSADSVKGRFTISRDNAKNTVYLQMNSLKPEDTAVYYCAARQQVRLRQGPLYYYWGQGTQVTVSS | high polyreactivity
25 | QLQLVESGGGLVQAGGSLRLSCAASGGIFPNYVMGWYRKAPGKERELVAGITSGGNTNYADSVKGRFTISRDNAKNTVYLQMNSLKPEDTAVYYCAADGYRYSVYLIRNPMDYWGQGTQVTVSS | low polyreactivity
26 | QVQLVETGGGLVQAGGSLRISCAPSGRTFRNNDMAWYRQAPGTEREFVAVISNTGGSTYYADSVKGRFTNSRDNAKNTVYLQMNSLKPEDTAVYYCAVRPRYSQYYYWGQGTQVTVSS | high polyreactivity
27 | QVQLVESGGGLVQAGGSLRLSCAASGFTFKLYAMGWYRQAPGKERELVAAISSSGGRTYYADSVKGRFTISRDNAKYNVYLQMNSLKPEDTAVYYCNAVRTVNDYHYDYWGQGTQVTVSS | high polyreactivity
28 | QVQLVDSGAGLVQAGGSLRLSCAASGRISYVYAMGWYRQAPGKDRELVAGITWSDGSTFYADSVKGSFTISRDNAKNTVYLQMNSLKPEDTAVYYCAARFNRKILGRYYFWGQGTQVTVSS | high polyreactivity
29 | QVQLVESGGGLVQAGGSLRLSCAASGRTFSTYAMGWYRQATGKERELVAAIRSGGSTYYADSVKGRFTISRDNAKNTVYLQMNSLKPEDTAVYYCNALPRPSIFRYDYWGQGTQVTVSS | high polyreactivity
30 | QVQLGESGGGLVQAGGSLRLSCAASGSIFPDNTMGWYRPATGKEWELVAAIDGRGGTTYYADSVKGRFTISRDNAKNTVYLQMNSLKPEDTAVYYCARDIGHSARYDYWGQGTQVTVSS | low polyreactivity
31 | QVQLVESGGGLVQAGGSLRLSCAASGLTFARNAMGWYRQAPGKERELVAAISSGGSTYYADSVKGRFTISRDNAKNPVYLQMNSLKPEDTAVYYCAARPIPRYYGKFWRVDYWGQGTQVTVSS | high polyreactivity
32 | QVQLVESGRGLVQAGGSLRLSCAASGSIFQKYTMGWYRQAPGKERELVAGINTSGANTYYADSVKGRFTISRDNAKNTVYLQMNSLKPEDTAVYYCAAARPWFAYYYWGQGTQVTVSS | high polyreactivity
33 | QVQLVDSGGGLVQAGGSLRLSCAASGSIFDPNAMGWYRQAPGKERELVADIDSSDGSTYYADSVKGRFTISRDNAKNTVYLQMNSLKPEDTAVYYCNALSALAVEDGYWGQGTQVTVSS | low polyreactivity
34 | QVQLVESGGGLVQAGGSLRLSCAATGRIISFYVMGWYRQAPGKERELVAAISLSGGSTYYADSVKGRFTNSRDNAKNTVFLQMNCLKPEDTAVYYCYAVLYARQRERWARYDYWGQGTQVTVSS | high polyreactivity
35 | QVQRVESGGGLVQAGGSLRLSCAASGITFKYYGMGWYRRAPGKERELVAAITRSGGSTSYADSVKGRFTISRDNAKNTVYLQMHSLKPEDTAVYYCAAERYVLTWLGIERYYWGQGTQVTVSS | high polyreactivity
36 | QVQLVESGGGLVQSGGSLRLSCAASGRIFTHYAMGWYRQAPGKERELVAALSRSGGSTYYADSVKGRFTISRDNAKNTVYLQLNSLIPEDTADYYCDADGGRYFYRGTYREMNYWAQGTQVTVSS | high polyreactivity
37 | QVQLVESGGGLVQAGGSLRLSCAASGFTFWRYAMGWYRQAPGKDRELVAAISWRGSSTYYADSVKGRFTISRDNAMNTVYLQMNSLKPEDTAVSYCARYQSTYDSTYNYWGQGTQVTVSS | high polyreactivity
38 | QVLLVESGVGLVQAGGSLRLSCASSGFTFYRNAMGWYRQAPGKERELVASISRSGGSTYYADSVKGRFTISRDNAKNTVYLQMNSLKPEDTAVYYCAADLWWIYPHKYYYWGQGTQVTVSS | high polyreactivity
39 | QVQLVESGGGLVQAGGSLTLICAASGRTLYLNAMGWYRQAPRKERELVAISSGGSTYYADSVKGRFTISRDNAKNTVYLQMNSLKPEVTAVYYCNADEHYHFCYVFWYAYDYWGQGTQVTVSS | low polyreactivity
40 | QVQLVESGGGLVQAGGSLRLSCADSGFIFSAHAMGGYSQAPGKDRELVAAISRTGGSTYYADSVKGRFTISRDNAKNTVYLQMNSLKPEETAGYYGAAYIRYGGLAYDSNYWGQGTQVTVSS | high polyreactivity
41 | QVQLVESGGGLVQAGGSLRLSCAASGSTFRSYVMGWYRQAPGKERELVARITFNGGGTSYADSVKGRFTISRDTAKNTVYLQMNSLKPEDTAVYYCAARGYGWPKLFNYWGQGTQVTVSS | high polyreactivity
42 | QVQLLESGGGLVQAGGSLRLSCAASVFTFYGYAMGWYRQAPGKERELVAAISRRGGSTYYADSVKGRFTISRDNAKNTVYLQMNSLKPEDTAVYYCATDRAYYHSYGRFGYWGQGTQVTVSS | high polyreactivity
43 | QVQLVESGGGLVQAGGTLRLSCAASGGIFLYYAMGWYRQAPGKERELVATISSGGSTKYADSVKGRFTISRDNAMNTVYLQMNSLKPEDTAVYYCNKVFPNLYIYVVRGLIEMDYWGQGTQVTVSS | low polyreactivity
